# In US20150361149A1 (FLORIDA STATE UNIVERSITY RESEARCH FOUNDATION, published 2015):
# B1: Difoil-4PΔ1-10 (other)
# chain: HHHHHHPVLLKSTETGQYLRINPDGTVDGTRDRSDPHIQFQISPEGNGEVLLKSTETGQYLRINPDGTVDGTRDRSDPHIQFQISPEGNG
# notes: Form used for crystallisation (PDB 3OGF); Three chains make two β-trefoil folds; also called Difoil-4P* (Δ1-10 mutant form)
# B2: peptide fragment of FGF-1, residues 53-93 (second trefoil-fold subdomain) (peptide, UniProt P05230 68-108, looked up)
# peptide: EVYIKSTETGQYLAMDTDGLLYGSQTPNEECLFLERLEENH
# B3: peptide fragment of FGF-1, residues 94-140 (third trefoil-fold subdomain) (peptide, UniProt P05230 109-155, looked up)
# peptide: YNTYISKKHAEKNWFVGLKKNGSCKRGPRTHYGQKAILFLPLPVSSD
# B4: peptide fragment of FGF-1, residues 10-52 (first trefoil-fold subdomain) (peptide, UniProt P05230 25-67, looked up)
# peptide: KPKLLYCSNGGHFLRILPDGTVDGTRDRSDQHIQLQLSAESVG
# What was measured:
# [1] = target: FGFR on NIH 3T3 fibroblasts; test: cell-based or functional assay
# [2] = target: the molecule itself; test: X-ray crystal structure (Δ1-10 form)
# Source text: Crystals of Monofoil-4PΔ1-10 and Difoil-4PΔ1-10 grew in 2 M ammonium sulfate, 0.1 M Na citrate pH 5.5. Crystals were mounted in a stream of gaseous nitrogen at 100 K and diffraction data were collected at either the Southeast Regional Collaborative Access Team 22-BM beam line (λ=1.00 Å) at the Advanced Photon Source, Argonne National Laboratory, using a MarCCD 300 detector (Mar USA) or at the X25 beam line of the National Synchrotron Light Source at Brookhaven National Laboratory, using an ADSC Q315 CCD detector. Each dataset was collected from a single crystal except Monofoil-4PΔ1-10 and Difoil-4PΔ1-10. Datasets from two crystals of Monofoil-4PΔ1-10 were combined for better completion and redundancy.
# Diffraction data were indexed, integrated, and scaled using the HKL2000 software package (Otwinowski Z (1993) Proceedings of the CCP4 Study Weekend: “Data Collection and Processing”, eds Sawyer L, Isaacs N, Bailey S (Science and Engineering Research Council, Daresbury Laboratory, England), pp 56-62 and Otwinowski Z and MinorW (1997) Meth Enzymol 276:307-326). Molecular replacement and model building utilized the PHENIX software package (Zwart P H et al. (2008) Methods Mol Biol 426:419-435), with 5% of the data in the reflection files set aside for Rfree calculations (Brunger A T (1992) Nature 355:472-475). […]
# [3] = target: the molecule itself; test: size-exclusion chromatography of peptide fragments
molecule,measurement,setting,value
"human fibroblast growth factor-1 (FGF-1), 140 amino acid form (from UniProt P05230 16-155) (ligand)","mitogenic activity with 3T3 fibroblasts, EC50",[1],0.0584 µg/mL
B1,binding result,[2],binds
B2,binding result,[3],no binding
B3,binding result,[3],no binding
B4,binding result,[3],no binding
